Test system: MS2 coat protein
Assay: apparent KD of MS2 coat protein; designed switch direction (-1 OFF switch, 1 ON switch): -1; higher = weaker reporter binding
Outline: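 The reported apparent KD is a per-design median over clusters, from curve fits of normalised cluster fluorescence. Protein titrations used SNAP-549-labelled MS2 coat protein, doubled from 0.7 or 1.5 nM to 3 µM, in Tris-HCl pH 7.5 buffer with KCl, MgCl2, BSA, DTT, tRNA and Tween-20, with no input, 200 uM small-molecule ligand, or an oligonucleotide input. The RNA switches were transcribed on Illumina chips by stalled E. coli RNA polymerase.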

[1] = Eterna round: R95, input ligand: FMN 200 uM
[2] = Eterna round: R95, input ligand: microRNA oligo, concentration not stated
[3] = Eterna round: R95, input ligand: none
[4] = input ligand: microRNA oligo, concentration not stated

Row | Sequence | apparent KD of MS2 coat protein (input ligand: FMN 200 uM) [nM] | apparent KD of MS2 coat protein (input ligand: none) [nM] | apparent KD of MS2 coat protein [1] [nM] | apparent KD of MS2 coat protein [2] [nM] | apparent KD of MS2 coat protein [3] [nM] | apparent KD of MS2 coat protein [4] [nM]
1 | GCCGUAAAUGUGAGGAUAUACCUAUGGAUACAUAGGUAGAAGGCACAUGAGGAUCACCCAUGUUCUUAAUCGGC [Eli BMX r4m2] (Eterna round: R97, puzzle: Brourd's mod of Exclusion 4) | 567 | 185 | – | – | – | –
2 | GUGUUACAAGUGAGGAUAUCUGCUUUGGUAGAAGCGGAGAAGGCACAUGAGGAUCACCCAUGUCAGGAGUCCAU [Eternabot (L2) Solution 20] (Eterna round: R97, puzzle: Brourd's mod of Exclusion 4) | 393 | 59.3 | – | – | – | –
3 | AGUAACCGUCACGAAAGUGAUGGUUACACAAGAAAUGAAACAUGAGGAUCACCCAUGUCCUCAUUUGCUCGUCUUAU [Sensor 3 - 38] (puzzle: Sensor v3, turn-off variant 2) | – | – | 176 | 288 | 259 | –
4 | GAAGAAGAGAGAAAAGAAAACAUGAGGAUCACCCAUGUGAGAAGAUGAGGGUGAUACAGGCUAUAUGCUCGUCUUAU (puzzle: Sensor v3, turn-off variant 1) | – | – | 247 | 28.8 | 295 | –
5 | UUGUAUAUCUAUGGGAGUAACAUGAGGAUCACCCAUGUAUGUCUUGUUUUUUGUUCGUCAUAGGCCAAUUGAAUGGU [JR_SV3TOV1_Sub026] (puzzle: Sensor v3, turn-off variant 1) | – | – | 25.9 | 34.5 | 28.9 | –
6 | GCAGCAUAGAUAACAGUCUGAUACAUGAGGAUCACCCAUGUGCAGGAUAUGGUCUGGAUUACAGGCCAGAAGGGUACAAGCUGC [Eli exng3 - 015] (Eterna round: R96, puzzle: Exclusion NG 3) | 10.4 | 13.4 | – | – | – | 7.84
7 | CCGGAAAGGAAGGAUAUGCUAGACGAAAGUCUAGCAGAAGGUCCUACAUGAGGAUCACCCAUGUGUCCUCCCGG [Eli x6 4.08] (Eterna round: R97, puzzle: Exclusion 6) | 2270 | 270 | – | – | – | –
8 | ACAUGAGGAUCACCCAUGUGAAAACAAUGGCUGACACAGAGAUAGGAUAUAUGUGCAUAUCAAACAUAGAAGGGUCAUUACUGG [Deportation 86 - Jieux - Exclusion NG 3] (Eterna round: R96, puzzle: Exclusion NG 3) | 42.6 | 46.2 | – | – | – | 40.2
9 | AGAAAUGCCCAUGGCCACAAGCUUUUUGCUUGUCUUACUACAUGAGGAUCACCCAUGUACCAUGGGCUCCUGAUAAU [Anxemaes] (puzzle: Sensor v3, turn-off variant 2) | – | – | 13.8 | 9.75 | 10.4 | –
10 | AUAUAGCGAGGAUAUACAUGAGGAUCACCCAUGUGGUAGUAGAUACAGUAGAGAUAGAGUAGAAGGCGCUAUGA [EX3 #7] (Eterna round: R97, puzzle: Exclusion 3) | 416 | 79.2 | – | – | – | –
11 | AAGACUAGAGGAUAUACAUGAGGAUCACCCAUGUAACUGUCAGGUGACUGACGGAAAUGUAGAAGGCUAGUCAA [Mat - Exclusion 3 - JL mod - D81] (Eterna round: R96, puzzle: Exclusion 3) | 54.2 | 16.8 | – | – | – | 13.6
12 | GGAGGACGAGCAGGAUAUUUUUACAUGAGGAUCACCCAUGUGUAAUCAGGGUAAUCCUCCGCCGAAAAGAAGGGUUCGGAAGAA [Mat - Exclusion NG 2 - Mod of JL - D83] (Eterna round: R96, puzzle: Exclusion NG 2) | 2750 | 67.6 | – | – | – | 16.9
13 | GCGUGGCGUAAGGAUAUCCAUACGGUAUAACCGGGAGAAGGUACGACAUGAGGAUCACCCAUGUGGCCUGGAAA [Sorimaat] (Eterna round: R97, puzzle: Exclusion 6) | 64.4 | 22.2 | – | – | – | –
14 | ACAAGCUUUUUCAUAUCUUACAUGAGGAUCACCCAUGUUUUUGCAAUUAUGUUUGGGCUCUUUUGUGCUCGUCUUAU [JR_STOV1_Sub049] (Eterna round: R97, puzzle: Sensor, turn-off variant 1) | 14.9 | 15.4 | – | – | – | –
15 | CCUCUGUAAGGAUAUACGGAGACGGCUGGAAUCAGUGGAAAGUAGAAGGUACAUGAGGAUCACCCAUGUGAGAC [Anceleso] (puzzle: Exclusion 4) | – | – | – | 20.2 | – | –
16 | UAUCGGCGGACCGAGGCUUUUUGCUCGUCUUAUGCUACGACAUGAGGAUCACCCAUGUGGUGGUGGUCCGUUGUAGU [JL ViennaUCT Bitein mod 8] (puzzle: Sensor v3, turn-off variant 2) | – | – | 123 | 15.2 | 107 | –
17 | UUUUUGUCAGGAUAUGAGUAGUAGUACUAUUGUUUUAUUAUUUAGAAGGGACAUGAGGAUCACCCAUGUUUCUC [Bring Us a Shrubbery-01] (puzzle: Exclusion 4) | – | – | – | 14.4 | – | –

Row | Sequence | apparent KD of MS2 coat protein (input ligand: FMN 200 uM) [nM] | apparent KD of MS2 coat protein (input ligand: none) [nM] | apparent KD of MS2 coat protein [1] [nM] | apparent KD of MS2 coat protein [2] [nM] | apparent KD of MS2 coat protein [3] [nM] | apparent KD of MS2 coat protein [4] [nM]
18 | GUGUAGUCAGGAUAUACAUGAGGAUCACCCAUGUGAAUAAGAUAGAAUAAGAUAAAGUGUAGAAGGGACAGUGU [Excluse me!!! 4 - Jieux - Exclusion 3] (puzzle: Exclusion 3) | – | – | 33.8 | 34.1 | 35.9 | –
19 | CAUGUGUAAGGAUAUGACAAUGGUAUCUUCGGAUACCAUUGUCAGAAGGUACAUGAGGAUCACCCAUGUGGAUC [Ex4-3: 20] (puzzle: Exclusion 4) | – | – | – | 222 | – | –
20 | GCACUGCGAGGAUAUACAUGAGGAUCACCCAUGUGUCGGCAGCCAUGCCAGUACAAAUGUAGAAGGCGCGUAAA [EX3 #55] (Eterna round: R97, puzzle: Exclusion 3) | 88.1 | 27 | – | – | – | –
21 | GUCAGCUCGUGAGGAUAUACAUGCGUGCUUCGGCACGAAUUUAAGAUCACAUGAGGAUCACCCAUGUAGAAGGCACGAGCUGAU [ENG2/3-A2] (Eterna round: R96, puzzle: Exclusion NG 2) | 366 | 797 | – | – | – | 896
22 | AAAGAGCGAGGAUAUACGUAUCGGUGCGGCCAGCCGAUGUGACAUGAGGAUCACCCAUGUAGAAGGCGCAGAAA [Excls2-IX] (puzzle: Exclusion 2) | – | – | – | 23.4 | – | –
23 | AACUAGUCAGGAUAUACAUGAGGAUCACCCAUGUAAACUUUUAGUUUAAUUUGAAUGUGUAGAAGGGACAUAAA [Ex3 #43] (Eterna round: R97, puzzle: Exclusion 3) | 20.7 | 20.3 | – | – | – | –
24 | UGCCAGAAAGGAUAUACAUGAGGAUCACCCAUGUAACCCUAUGUGAGAGUUCCCGUUUGUAGAAGGUUCUCGUA [EX3 C.22] (Eterna round: R97, puzzle: Exclusion 3) | 21.3 | 18.2 | – | – | – | –
25 | GGAUUACAUGAGGAUCACCCAUGUCAGGAUAUACGAUCAUAUGCCGAAAGGCAUAUGAGUAGAAGGGACAAUAU [AK-MS2ROC-r4-exclusion1-2.0] (Eterna round: R97, puzzle: Exclusion 1) | 46.2 | 36.1 | – | – | – | –
26 | AAGUCAACAUGAGGAUCACCCAUGUCCAAGUUGAUGUCCUGUGAGGAUAUGUGUAAACGGCCGGCACAGAAGGCACAAGACGCG [Eternabot solution 5] (Eterna round: R96, puzzle: Exclusion NG 3) | 32.3 | 34.5 | – | – | – | 30.4
27 | UGCUACAUGAGGAUCACCCAUGUAAUGUGGGAUUCGUUAGGACAGGAUAUGAUUGUAUAGUUUUUUCAGAAGGGUCAUUACUUU [JR_ExcNG3_Sub010] (Eterna round: R96, puzzle: Exclusion NG 3) | – | – | – | – | – | 62.9
28 | AAAAAGGUAGGAUAUACGAAAAAAAAGGGUAGAAAAAAAACACAUGAGGAUCACCCAUGUAGAAGGACCAAAAC [salish99_ex2_r3_046] (puzzle: Exclusion 2) | – | – | 66.7 | 33.4 | 30.2 | –
29 | GUACUGAAGCUUUGCUUUAGUCGUACAUGAGGAUCACCCAUGUAGGAUAUGGUAGGCUUUGCUUACCAGAAGGACAGAGUGAUC [JL EXNG3 1.25] (Eterna round: R96, puzzle: Exclusion NG 3) | 68.6 | 85.3 | – | – | – | 83.7
30 | GGUUGACAUGAGGAUCACCCAUGUGAGGAUAUGCGAGAGAAAAAAGUGAGGAAGUUAAGCAGAAGGCGCUGUCG [salish99-ex1_r3_005] (puzzle: Exclusion 1) | – | – | 89.5 | 78 | 307 | –
31 | AGCUGUGGCCGAGGAUAUCACGAACCAUGGAAAACCAUGGAACUCAUACAUGAGGAUCACCCAUGUGAGAAGGCGGUCUCAGCA [Eli eng2 - 019] (Eterna round: R96, puzzle: Exclusion NG 2) | – | – | – | – | – | 27
32 | CUCCGGCCUGUAGGAUAUGGAUCCGAUUAGGAUCCAGAAGGACAUGAGGAUCACCCAUGUACAUGUAAACAGUCAUCACCGGAC [salish99_ExNG1_r04_203] (Eterna round: R96, puzzle: Exclusion NG 1) | 23.8 | 16.7 | – | – | – | 15.2
33 | ACAUGUUGUCCAUGAUAUUACAUGAGGAUCACCCAUGUUAUGGCGAUUUUGAUGUGUAAGUUUGUUGCUCGUCUUAU [JR_STOV1_Sub061] (Eterna round: R97, puzzle: Sensor, turn-off variant 1) | 19.2 | 20.6 | – | – | – | –
34 | GCGACACGAGGAUAUCGGGUCUCUAACAUGAGGAUCACCCAUGUGGCGGCAGGCGUAAGACGAGAAGGCGUAUUCA [Eternabot (L2) Solution 65] (Eterna round: R97, puzzle: Exclusion 5) | 26.6 | 34.3 | – | – | – | –

Source: the supplement of paper PMC9170038
